Tested on: Escherichia coli TOP10
Assay: shrunken log2 fold change of peptide-encoding DNA abundance (4.5 h post-induction vs induction); higher = less antimicrobial activity (less host growth inhibition)
Conditions: time post-induction: 4.5 h; library: site-saturation at positions 5, 18, 19, 20
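Further: peptides expressed intracellularly from a pBAD plasmid library in pooled LB shake-flask culture, induced with 0.3% L-arabinose, DNA abundance read by NGS, three biological replicates, DESeq2 with apeglm shrinkage.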

Point of comparison: RRIRGRPPRLPRPRPRPRYFPRP, “shrunken log2 fold change” value -0.0468. Against it:
- RRIRRRPPRLPRPRPRPFCPPRP — within 0.2 log units, -0.106
- RRIRWRPPRLPRPRPRPWWCPRP — within 0.2 log units, -0.0237
- RRIRTRPPRLPRPRPRPAEIPRP — within 0.2 log units, 0.083
- RRIRHRPPRLPRPRPRPVLLPRP — within 0.2 log units, -0.0673
- RRIRGRPPRLPRPRPRPASFPRP — higher, 0.345
- RRIRPRPPRLPRPRPRPTCCPRP — within 0.2 log units, -0.0529
- RRIRKRPPRLPRPRPRPRFGPRP — higher, 0.217
- RRIRGRPPRLPRPRPRPHHGPRP — within 0.2 log units, 0.0719
- RRIRVRPPRLPRPRPRPQKGPRP — within 0.2 log units, -0.036
- RRIRMRPPRLPRPRPRPQRIPRP — within 0.2 log units, -0.0462
- RRIRARPPRLPRPRPRPTSVPRP — higher, 0.52
- RRIRTRPPRLPRPRPRPRTLPRP — within 0.2 log units, -0.121
- RRIRPRPPRLPRPRPRPYLPPRP — lower, -0.431
- RRIRARPPRLPRPRPRPHMNPRP — within 0.2 log units, -0.245
- RRIRNRPPRLPRPRPRPPDAPRP — within 0.2 log units, 0.0157
- RRIRERPPRLPRPRPRPIQWPRP — within 0.2 log units, 0.0338
- RRIRHRPPRLPRPRPRPMIMPRP — lower, -0.266
- RRIRWRPPRLPRPRPRPWWVPRP — within 0.2 log units, 0.13
- RRIRHRPPRLPRPRPRPREGPRP — higher, 0.264
- RRIRIRPPRLPRPRPRPNARPRP — within 0.2 log units, 0.0831
- RRIRQRPPRLPRPRPRPQMDPRP — within 0.2 log units, -0.0516
- RRIRGRPPRLPRPRPRPNFFPRP — within 0.2 log units, 0.122
- RRIRPRPPRLPRPRPRPRQIPRP — within 0.2 log units, -0.0965
- RRIRMRPPRLPRPRPRPQIWPRP — within 0.2 log units, 0.144
- RRIRDRPPRLPRPRPRPRISPRP — within 0.2 log units, 0.0345
- RRIRLRPPRLPRPRPRPRNYPRP — within 0.2 log units, -0.0808
- RRIRPRPPRLPRPRPRPHFPPRP — within 0.2 log units, -0.204
- RRIRARPPRLPRPRPRPKYMPRP — lower, -0.477
- RRIRWRPPRLPRPRPRPAGMPRP — higher, 0.321
- RRIRHRPPRLPRPRPRPDFYPRP — lower, -0.609
- RRIRVRPPRLPRPRPRPSLHPRP — lower, -0.415
- RRIRNRPPRLPRPRPRPQNLPRP — lower, -0.266
- RRIRKRPPRLPRPRPRPSKSPRP — within 0.2 log units, -0.141
- RRIRMRPPRLPRPRPRPHRGPRP — within 0.2 log units, 0.0388
- RRIRIRPPRLPRPRPRPQPHPRP — within 0.2 log units, -0.00842
- RRIRPRPPRLPRPRPRPKGIPRP — within 0.2 log units, -0.0606
- RRIRYRPPRLPRPRPRPWMCPRP — within 0.2 log units, -0.0907
- RRIRSRPPRLPRPRPRPGVHPRP — within 0.2 log units, -0.035
- RRIRARPPRLPRPRPRPRIKPRP — within 0.2 log units, -0.00918
- RRIRCRPPRLPRPRPRPDFLPRP — lower, -0.657
- RRIRKRPPRLPRPRPRPILNPRP — within 0.2 log units, -0.158
- RRIRTRPPRLPRPRPRPMVMPRP — within 0.2 log units, -0.0384
- RRIRGRPPRLPRPRPRPGHCPRP — higher, 0.4
- RRIRRRPPRLPRPRPRPCSFPRP — within 0.2 log units, -0.0171
- RRIRPRPPRLPRPRPRPFNNPRP — lower, -0.836
- RRIRLRPPRLPRPRPRPKHCPRP — within 0.2 log units, -0.207
- RRIRFRPPRLPRPRPRPGWIPRP — within 0.2 log units, 0.0799
- RRIRPRPPRLPRPRPRPSKDPRP — lower, -0.451
- RRIRWRPPRLPRPRPRPHMHPRP — lower, -0.36
- RRIRFRPPRLPRPRPRPIRLPRP — within 0.2 log units, 0.0615
- RRIRGRPPRLPRPRPRPDSFPRP — within 0.2 log units, 0.00128
- RRIRVRPPRLPRPRPRPLNGPRP — within 0.2 log units, 0.103
- RRIRCRPPRLPRPRPRPWDHPRP — lower, -0.259
- RRIRIRPPRLPRPRPRPPQYPRP — within 0.2 log units, -0.226
- RRIRHRPPRLPRPRPRPTQFPRP — lower, -0.631
- RRIRLRPPRLPRPRPRPISGPRP — lower, -0.462
- RRIRHRPPRLPRPRPRPLRWPRP — higher, 0.3
- RRIRRRPPRLPRPRPRPCVMPRP — within 0.2 log units, 0.113
- RRIRKRPPRLPRPRPRPIEEPRP — higher, 0.566
- RRIRDRPPRLPRPRPRPMCWPRP — higher, 0.564
- RRIRNRPPRLPRPRPRPGRQPRP — within 0.2 log units, 0.0171
- RRIRDRPPRLPRPRPRPNATPRP — within 0.2 log units, 0.0821
- RRIRSRPPRLPRPRPRPQYPPRP — within 0.2 log units, -0.157
- RRIRKRPPRLPRPRPRPFQLPRP — within 0.2 log units, 0.0661
- RRIRLRPPRLPRPRPRPRDYPRP — within 0.2 log units, -0.00546
- RRIRPRPPRLPRPRPRPVATPRP — higher, 0.524
- RRIRFRPPRLPRPRPRPTHEPRP — higher, 0.171
- RRIRVRPPRLPRPRPRPLSNPRP — lower, -0.413
- RRIRMRPPRLPRPRPRPCINPRP — within 0.2 log units, -0.0644
- RRIRQRPPRLPRPRPRPSKFPRP — within 0.2 log units, -0.246
- RRIRNRPPRLPRPRPRPHPHPRP — lower, -0.576
- RRIRARPPRLPRPRPRPASRPRP — higher, 0.44
- RRIRERPPRLPRPRPRPNTKPRP — within 0.2 log units, 0.0156
- RRIRSRPPRLPRPRPRPMQPPRP — within 0.2 log units, 0.0538
- RRIRGRPPRLPRPRPRPMHYPRP — within 0.2 log units, -0.165
- RRIRNRPPRLPRPRPRPCRNPRP — lower, -0.437
- RRIRDRPPRLPRPRPRPAHIPRP — within 0.2 log units, -0.0312
- RRIRERPPRLPRPRPRPNFWPRP — higher, 1.9
- RRIRHRPPRLPRPRPRPKQLPRP — lower, -0.553
- RRIRRRPPRLPRPRPRPYICPRP — lower, -0.452
- RRIRARPPRLPRPRPRPYKWPRP — lower, -0.393
- RRIRDRPPRLPRPRPRPCNRPRP — within 0.2 log units, -0.0148
- RRIRWRPPRLPRPRPRPYMFPRP — within 0.2 log units, -0.194
- RRIRSRPPRLPRPRPRPVDLPRP — within 0.2 log units, -0.199
- RRIRRRPPRLPRPRPRPDSSPRP — within 0.2 log units, -0.118
- RRIRTRPPRLPRPRPRPFERPRP — within 0.2 log units, -0.0347
- RRIRERPPRLPRPRPRPNTCPRP — lower, -1.13
- RRIRLRPPRLPRPRPRPRGTPRP — within 0.2 log units, 0.0155
- RRIRNRPPRLPRPRPRPLKYPRP — within 0.2 log units, -0.0547
- RRIRARPPRLPRPRPRPILKPRP — higher, 0.221
- RRIRQRPPRLPRPRPRPQREPRP — within 0.2 log units, 0.00728
- RRIRDRPPRLPRPRPRPWPQPRP — within 0.2 log units, -0.121
- RRIRHRPPRLPRPRPRPHLWPRP — within 0.2 log units, -0.0776
- RRIRMRPPRLPRPRPRPSGGPRP — higher, 0.738
- RRIRGRPPRLPRPRPRPYMRPRP — within 0.2 log units, 0.0456
- RRIRKRPPRLPRPRPRPHGSPRP — within 0.2 log units, -0.0695
- RRIRMRPPRLPRPRPRPFGYPRP — within 0.2 log units, 0.067
- RRIRTRPPRLPRPRPRPAAVPRP — within 0.2 log units, -0.0116
- RRIRMRPPRLPRPRPRPMQDPRP — higher, 1.14
- RRIRHRPPRLPRPRPRPNDIPRP — within 0.2 log units, -0.0322
- RRIRTRPPRLPRPRPRPYHEPRP — within 0.2 log units, -0.0196
- RRIRLRPPRLPRPRPRPNFIPRP — within 0.2 log units, -0.228
- RRIRRRPPRLPRPRPRPRNAPRP — higher, 0.356
- RRIRFRPPRLPRPRPRPIEPPRP — higher, 0.242
- RRIRQRPPRLPRPRPRPIFPPRP — within 0.2 log units, 0.122
- RRIRARPPRLPRPRPRPMLFPRP — higher, 0.674
- RRIRIRPPRLPRPRPRPAIIPRP — lower, -1.09
- RRIRARPPRLPRPRPRPRGIPRP — higher, 0.488
- RRIRWRPPRLPRPRPRPPMQPRP — higher, 0.322
- RRIRIRPPRLPRPRPRPDIDPRP — within 0.2 log units, -0.151
- RRIRPRPPRLPRPRPRPAEAPRP — within 0.2 log units, 0.103
- RRIRYRPPRLPRPRPRPDPVPRP — within 0.2 log units, -0.0502
- RRIRERPPRLPRPRPRPSLYPRP — lower, -0.558
- RRIRFRPPRLPRPRPRPPWKPRP — higher, 0.154
- RRIRQRPPRLPRPRPRPLYWPRP — within 0.2 log units, -0.11
- RRIRTRPPRLPRPRPRPKLEPRP — within 0.2 log units, -0.0598
- RRIRLRPPRLPRPRPRPGMHPRP — higher, 0.299
- RRIRYRPPRLPRPRPRPTNGPRP — within 0.2 log units, -0.126
- RRIRHRPPRLPRPRPRPPYEPRP — lower, -0.486
- RRIRDRPPRLPRPRPRPGGWPRP — higher, 0.975
- RRIRHRPPRLPRPRPRPFCMPRP — lower, -1.09
- RRIRARPPRLPRPRPRPNYTPRP — lower, -0.329
- RRIRMRPPRLPRPRPRPWYDPRP — within 0.2 log units, 0.0249
- RRIRERPPRLPRPRPRPECSPRP — within 0.2 log units, -0.0948
- RRIRFRPPRLPRPRPRPAYAPRP — within 0.2 log units, 0.113
- RRIRGRPPRLPRPRPRPYSYPRP — within 0.2 log units, -0.0264
- RRIRFRPPRLPRPRPRPNLVPRP — lower, -0.453
- RRIRCRPPRLPRPRPRPQGDPRP — within 0.2 log units, 0.0138
- RRIRQRPPRLPRPRPRPDITPRP — within 0.2 log units, -0.00487
- RRIRTRPPRLPRPRPRPKFGPRP — within 0.2 log units, -0.00436
- RRIRTRPPRLPRPRPRPTDCPRP — within 0.2 log units, 0.0577
- RRIRERPPRLPRPRPRPFTKPRP — within 0.2 log units, -0.0421
- RRIRCRPPRLPRPRPRPQSKPRP — lower, -0.448
- RRIRERPPRLPRPRPRPRPKPRP — higher, 0.194
- RRIRTRPPRLPRPRPRPKQGPRP — within 0.2 log units, 0.0588
- RRIRHRPPRLPRPRPRPTYYPRP — within 0.2 log units, -0.0104
- RRIRPRPPRLPRPRPRPCPEPRP — within 0.2 log units, -0.123
- RRIRTRPPRLPRPRPRPPSDPRP — higher, 0.498
- RRIRERPPRLPRPRPRPIPDPRP — within 0.2 log units, -0.209
- RRIRPRPPRLPRPRPRPDYKPRP — lower, -0.66
- RRIRARPPRLPRPRPRPANVPRP — within 0.2 log units, -0.0645
- RRIRQRPPRLPRPRPRPMICPRP — within 0.2 log units, 0.013
- RRIRFRPPRLPRPRPRPYANPRP — lower, -1.28
- RRIRTRPPRLPRPRPRPCADPRP — within 0.2 log units, -0.0062
- RRIRTRPPRLPRPRPRPDFDPRP — lower, -0.375
- RRIRTRPPRLPRPRPRPNKLPRP — within 0.2 log units, -0.127
- RRIRPRPPRLPRPRPRPFWVPRP — within 0.2 log units, 0.0111
- RRIRFRPPRLPRPRPRPKWVPRP — within 0.2 log units, -0.193
- RRIRTRPPRLPRPRPRPRPLPRP — higher, 0.295
